# Assay results reported in patent US20190359687A1 (Bayer, published 2019).
# Changes are numbered by the printed parent chain. In names and notes the source's numbering stands. No end group written: not given here.
# B1: TPP-7790, affinity matured 6C12 Fab (Fab, V domains shown)
# VH: EVQLVQSGAEVKKPGASVKVSCKASGYTFTTYAIHWVRQAPGQGLEWMGYINPSSGYTRYNPKFKHRVTMTRDKSTSTAYMELRSLRSDDTAVYYCWTGTRDYWGQGTTVTVSS
# VL: DIQLTQSPSFLSASVGDRVTITCRASSSVRYIYWFQQKPGKAPKLLIYATSFLQSGVPSRFSGSGSGTEYTLTISSLQPEDFATYYCHQRNSFPYTFGQGTKLEIK
# notes: Tested as Fab with a 6xHIS tag
# B2: TPP-5906, humanized and germlined 6C12 Fab; VL: (S24R, A26S, S49A, P54Q, F95Y); VH: (I48M, D56G, D66G, L70M, T72R) (Fab, V domains shown)
# VH: B1 VH with A33T, H66G, W97Q
# VL: DIQLTQSPSFLSASVGDRVTITCRASSSVSYIYWFQQKPGKAPKLLIYATSTLQSGVPSRFSGSGSGTEYTLTISSLQPEDFATYYCHQRNSFPYTFGQGTKLEIKR
# notes: The text says that a 6xHIS tag is present on the Fabs in the peptide ELISA; it is not in the printed chains
# Tests used:
# [1] = biological target: T1, human glycophorin A on human red blood cells or red blood cell membranes (human, UniProt P02724 20-150); assay: Fab on intact human RBC, unbound Fab by ELISA; 60 min after 200-fold dilution
# T1 construct: whole, on cells; also called hRBC; human RBC membranes
# T1 sequence (looked up): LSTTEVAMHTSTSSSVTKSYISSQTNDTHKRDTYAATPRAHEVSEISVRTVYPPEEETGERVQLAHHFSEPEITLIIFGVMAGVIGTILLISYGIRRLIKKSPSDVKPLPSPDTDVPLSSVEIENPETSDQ
# Protocol: (§1) The binding of affinity matured Fab antibodies to intact human RBC was also measured. Human RBC were isolated from fresh anti-coagulated normal human blood by centrifugation through a ficol gradient and washing in PBS buffer. RBC diluted to 1/10th of normal hematocrit were incubated with purified Fab antibodies at a final concentration of 7 ug/ml for 1 hour at room temperature on a rotating shaker after which a sample was taken and the RBC were pelleted by centrifugation and the supernatant was collected. The remaining RBC suspension was diluted 200-fold in PBS buffer and incubated for a total of 2 hours at room temperature on a rotating shaker and samples were removed at 0, 5 min, 20 min, 1 h and 2 h and the RBC pelleted and the supernatant collected. The amount of Fab in the supernatants was then measured using an ELISA assay and the results used to calculate the percentage of the input Fab that was bound to the RBC. […] The percentage that remains bound after 200-fold dilution of the RBC suspension is an indication of the overall strength of the binding to human RBC.
# [2] = biological target: T1, human glycophorin A on human red blood …; assay: Fab on intact human RBC, unbound Fab by ELISA; 120 min after 200-fold dilution
# Protocol: as §1
# [3] = biological target: T1, human glycophorin A on human red blood …; assay: SPR (Biacore), Fab on human RBC membranes;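 note: human RBC membranes captured on an L1 sensor chip, Fab fragments passed over as analyte, binding kinetics read by surface plasmon resonance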
# Protocol: Kinetic analysis of the antibody binding to human red blood cell membranes was also performed using surface plasmon resonance (SPR) using a Biacore instrument. In this assay membranes prepared from human red blood cells were attached to a L1 sensor matrix and antibodies were flowed over the RBC membranes.
# The binding kinetics of the affinity matured Fab antibodies was also measured.
# [4] = biological target: T1, human glycophorin A on human red blood …; assay: Fab on intact human RBC, unbound Fab by ELISA; 5 min after 200-fold dilution
# Protocol: as §1
# [5] = biological target: T1, human glycophorin A on human red blood …; assay: Fab on intact human RBC, unbound Fab by ELISA; 0 min after 200-fold dilution
# [6] = biological target: T2, GP5 peptide of the human GPA ectodomain (human, N-terminal biotin); assay: ELISA, Fab 0.05 ug/ml on biotin-peptide on streptavidin plate
# T2 construct: Residues 42 to 61 of the human GPA extracellular domain
# Description: (§2) These peptides were attached to the surface of a streptavidin coated plate via a biotin moiety that was present at the N-terminus of each peptide.
# [7] = biological target: T3, GP13 peptide of the human GPA ectodomain (human, not fully specified (N-terminus)); assay: as above
# T3 peptide: PPEEETGE
# Description: as §2
# [8] = biological target: T4, GP16 peptide of the human GPA ectodomain (human, not fully specified (N-terminus)); assay: as above
# T4 peptide: EETGERVQ
# Description: as §2
# [9] = biological target: T5, GP15 peptide of the human GPA ectodomain (human, not fully specified (N-terminus)); assay: as above
# T5 peptide: EEETGERV
# Description: as §2
# [10] = biological target: T6, GP12 peptide of the human GPA ectodomain (human, not fully specified (N-terminus)); assay: as above
# T6 peptide: YPPEEETG
# Description: as §2
# [11] = biological target: T7, GP8 peptide of the human GPA ectodomain (human, not fully specified (N-terminus)); assay: as above
# T7 peptide: VRTVYPPE
# Description: as §2
# [12] = biological target: T8, GP11 peptide of the human GPA ectodomain (human, not fully specified (N-terminus)); assay: as above
# T8 peptide: VYPPEEET
# Description: as §2
# [13] = biological target: T9, GP10 peptide of the human GPA ectodomain (human, not fully specified (N-terminus)); assay: as above
# T9 peptide: TVYPPEEE
# Description: as §2
# [14] = biological target: T10, GP9 peptide of the human GPA ectodomain (human, not fully specified (N-terminus)); assay: as above
# T10 peptide: RTVYPPEE
# Description: as §2
# [15] = biological target: T11, GP14 peptide of the human GPA ectodomain (human, not fully specified (N-terminus)); assay: as above
# T11 peptide: PEEETGER
# Description: as §2
# [16] = biological target: T1, human glycophorin A on human red blood …; assay: Fab 7 ug/ml on intact human RBC, unbound Fab by ELISA; pre-dilution
# [17] = biological target: T2, GP5 peptide of the human GPA ectodomain; assay: ELISA, Fab 0.5 ug/ml on biotin-peptide on streptavidin plate
# Description: as §2
# [18] = biological target: T3, GP13 peptide of the human GPA ectodomain; assay: as above
# Description: as §2
# [19] = biological target: T4, GP16 peptide of the human GPA ectodomain; assay: as above
# Description: as §2
# [20] = biological target: T12, GP7 peptide of the human GPA ectodomain (human, not fully specified (N-terminus)); assay: as above
# T12 peptide: SVRTVYPP
# Description: as §2
# [21] = biological target: T5, GP15 peptide of the human GPA ectodomain; assay: as above
# Description: as §2
# [22] = biological target: T6, GP12 peptide of the human GPA ectodomain; assay: as above
# Description: as §2
# [23] = biological target: T7, GP8 peptide of the human GPA ectodomain; assay: as above
# Description: as §2
# [24] = biological target: T8, GP11 peptide of the human GPA ectodomain; assay: as above
# Description: as §2
# [25] = biological target: T9, GP10 peptide of the human GPA ectodomain; assay: as above
# Description: as §2
# [26] = biological target: T10, GP9 peptide of the human GPA ectodomain; assay: as above
# Description: as §2
# [27] = biological target: T11, GP14 peptide of the human GPA ectodomain; assay: as above
# Description: as §2
Binder,percentage of input antibody bound [1] [%],percentage of input antibody bound [2] [%],kon [3] [M⁻¹ s⁻¹],percentage of input antibody bound [4] [%],percentage of input antibody bound [5] [%],binding signal in ELISA (relative light units) [6] [RLU],binding signal in ELISA (relative light units) [7] [RLU],binding signal in ELISA (relative light units) [8] [RLU],binding signal in ELISA (relative light units) [9] [RLU],binding signal in ELISA (relative light units) [10] [RLU],binding signal in ELISA (relative light units) [11] [RLU],binding signal in ELISA (relative light units) [12] [RLU],binding signal in ELISA (relative light units) [13] [RLU],binding signal in ELISA (relative light units) [14] [RLU],binding signal in ELISA (relative light units) [15] [RLU],percentage of input antibody bound [16] [%],binding signal in ELISA (relative light units) [17] [RLU],binding signal in ELISA (relative light units) [18] [RLU],binding signal in ELISA (relative light units) [19] [RLU],binding signal in ELISA (relative light units) [20] [RLU],also measured
B1,87,88,8.58e+06,89,88,2880,0,-1,-1,-1,83,0,7,7,-1,91,6990,-1,0,1,binding signal in ELISA (relative light units) [21]: 0 RLU; binding signal in ELISA (relative light units) [22]: 0 RLU; binding signal in ELISA (relative light units) [23]: 3370 RLU; binding signal in ELISA (relative light units) [24]: 1 RLU; binding signal in ELISA (relative light units) [25]: 38 RLU; binding signal in ELISA (relative light units) [26]: 169 RLU; binding signal in ELISA (relative light units) [27]: 0 RLU
B2,8,8,7.14e+06,28,82,2000,-1,0,-1,-1,-1,-1,0,-1,-1,93,6680,-1,-1,0,Kd [3]: 0.707 nM; koff [3]: 0.00504 s⁻¹; binding signal in ELISA (relative light units) [21]: -1 RLU; binding signal in ELISA (relative light units) [22]: -1 RLU; binding signal in ELISA (relative light units) [23]: 1 RLU; binding signal in ELISA (relative light units) [24]: 0 RLU; binding signal in ELISA (relative light units) [25]: 0 RLU; binding signal in ELISA (relative light units) [26]: 1 RLU; binding signal in ELISA (relative light units) [27]: -1 RLU
